We go through one substance from patent US10772909B2, “System and method for insulin-mimetic of cartilage, bone, or osteochondral repair and piezoelectric composite scaffold” (New Jersey Institute of Technology, priority 2016, dated 2020).

In this data set the test system is PBMCs. The data set is described as follows: PBMC proliferation assay (3H-TdR incorporation). It is filed as cell-based, human. The conditions noted are these: positive control, 1% PHA. The text has this: Peripheral blood was obtained from four healthy subjects, two males and two females (ages 18-30 years old). Peripheral blood mononuclear cells (PBMCs) were isolated by Ficoll Hypaque (Sigma-Aldrich) gradient separation. Human MSCs were obtained from human bone marrow aspirates (Lonza, Walkersville, Md., USA) from four healthy subjects, two males and two females, ages 18-30 years old, according to previously published protocols and cryopreserved before use. Human MSCs were characterized for the expression of surface markers CD29, CD44, CD73, CD90, and CD105 and lack expression of CD14, CD34 and CD45 as determined by flow cytometry. The differentiation potency was determined by the differentiation of MSCs into osteoblasts, adipocytes and chondrocytes in vitro [32,33]. […]
The cytotoxicity of Na2WO4 was examined using PBMCs. Cell proliferation was measured using tritiated thymidine (^3H-TdR) incorporation as described in Kapoor et al.. […]
After 16 h, the cells were harvested on glass fiber filters (Cambridge Technology, Inc.) using a cell harvester (EMD Millipore). […] The radioactive incorporation of ^3H-TdR in the cells was measured using a liquid scintillation counter (Beckman; Fullerton, Calif., USA). The stimulation index (SI) was calculated as disintegration per minute (dpm) of treated group/dpm of unstimulated PBMCs (0 mM).

With phytohemagglutinin [PHA], the “stimulation index (SI)” value was 11.5±1.2.
